{"source": "patent US20050148500A1", "about": "“Dopaminergic stimulatory factor” (priority 2001, published 2005)", "molecules": {"B1": {"name": "ciliary neurotrophic factor (protein, UniProt P26441 1-200, looked up)", "Ciliary neurotrophic factor": "MAFTEHSPLTPHRRDLCSRSIWLARKIRSDLTALTESYVKHQGLNKNINLDSADGMPVASTDQWSELTEAERLQENLQAYRTFHVLLARLLEDQQVHFTPTEGDFHQAIHTLLLQVAAFAYQIEELMILLEYKIPRNEADGMPINVGDGGLFEKKLWGLKVLQELSQWTVRSIHDLRFISSHQTGIPARGSHYIANNKKM"}, "B2": {"name": "glial derived neurotrophic factor (protein, UniProt P39905 78-211, looked up)", "Glial cell line-derived …": "SPDKQMAVLPRRERNRQAAAANPENSRGKGRRGQRGKNRGCVLTAIHLNVTDLGLGYETKEELIFRYCSGSCDAAETTYDKILKNLSRNRRLVSDKVGQACCRPIAFDDDLSFLDDNLVYHILRKHSAKRCGCI"}, "B3": {"name": "transforming growth factor β2 (protein, UniProt P61812 303-414, looked up)", "Transforming growth factor …": "ALDAAYCFRNVQDNCCLRPLYIDFKRDLGWKWIHEPKGYNANFCAGACPYLWSSDTQHSRVLSLYNTINPEASASPCCVSQDLEPLTILYYIGKTPKIEQLSNMIVKSCKCS"}}, "system": "MN9D cells", "assay": "Dopamine content of MN9D cells in monolayer culture after incubation with protein (HPLC)", "format": "cell-based, mouse", "description": "[…] The MN9D cells on each plate were then collected in 10 ml of CMF, transferred to 15 ml centrifuge tubes and centrifuged at 1000×g for 5 min. The supernatant was removed and 600 μl of 0.5 N perchloric acid was added to the cell pellet which was then sonicated on ice for 10-15 s. The cell extract was centrifuged at 4000×g for 30 min and the supernatant stored at −80° C. for subsequent high pressure liquid chromatography (HPLC) analysis of MN9D cell dopamine content. The pellet was stored at −20° C. for subsequent protein analysis.\nA second experiment was then conducted to determine whether this effect was due to a change in the doubling time (24 h) of the MN9D cells with increased cell production or was the result of an increase in cellular dopamine. […] Cells were removed from the plates and cell numbers determined by counting in a hematocytometer. Dopamine content was determined by HPLC analysis. The MN9D cells can be differentiated by exposure to either sodium butyrate or dibutryl cyclic adenosine monophosphate for 5 days (Choi et al., 1991) resulting in a reduction in the rate of cell division and the production of extensive cellular processes.\nExperiment involved 24 hour incubation with X61 protein(s). X61 protein(s) was incubated with 100 microliter of concentrated monoclonal antibody against 14-3-3 (anti-14-3-3) obtained from Santa Cruz Biotechnology for 15 minutes at room temperature prior to addition to MN9D cells grown on 6-well plates. Data given as ng dopamine per well, n=3. The reason for the lower amounts of dopamine seen in this experiment as compared to that in Tables 2 and 3 is related to differences in time of exposure and plate size. X61 protein(s) were also preincubated with an antibody against neuronal nuclear protein as a control. This antibody had no effect on X61 protein(s) activity.\nAfter this period, the MN9D cells on each plate are collected in 10 ml of CMF, transferred to 15 ml centrifuge tubes and centrifuged at 1000×g for 5 min. The supernatant is removed and 600 μl of 0.5N perchloric acid is added to the cell pellet which is then sonicated on ice for 10-15 seconds. The material obtained is centrifuged at 4000×g for 30 minutes and the supernatant stored at −80° C. MN9D cell DA content is determined by reverse phase high pressure liquid chromatography with electrochemical detection (HPLC-ED) as previously described (Heller et al., 1993). The pellet is stored at −20° C. for subsequent protein analysis.", "note": "“Also recorded” adds a separate entry of the source."}
{"molecule": "B1", "values": [{"measurement": "effect on MN9D dopamine levels", "setting": "100 ng/ml, 24 hour treatment", "value": "no significant effect"}, {"measurement": "MN9D DA levels", "setting": "100 ng/ml, 24 hour treatment, controls 157.8±3.3", "value": "156.5±10.9", "unit": "ng/plate"}]}
{"molecule": "B2", "values": [{"measurement": "effect on MN9D dopamine levels versus controls", "setting": "1 ng/ml for 5 days", "value": "significantly lower; also recorded: significant decrease"}, {"measurement": "MN9D DA levels", "setting": "1 ng/ml for 5 days, control 467±18.4", "value": "356.0±14.4", "unit": "ng/plate"}]}
{"molecule": "B3", "values": [{"measurement": "effect on MN9D DA levels", "value": "without effect"}]}
